Experimental data: paper PMC10547473
Read-outs that look alike come from different tables or passages of the source.

Substance | localisation_or_trafficking (phosphorylation at S134) | localisation_or_trafficking (phosphorylation at S138) | localisation_or_trafficking (phosphorylation at S142) | localisation_or_trafficking (phosphorylation at S122) | localisation_or_trafficking (phosphorylation at S211)
TFEB: 3xSA-TR (S134A, S138A, S142A) | decreases | decreases | decreases |  | 
TFEB: 5xSA-TR (S122A, S134A, S138A, S142A, S211A) | abolishes | abolishes | abolishes | abolishes | abolishes
